Experimental data: patent US20210380667A1 (NOVOZYMES A S, published 2021)
Positions count from the first letter of the chain named. Names and notes keep the numbering of the source.

T1: B. lentus protease having SEQ ID NO: 2 (Savinase) (Bacillus lentus, UniProt P29600 1-269)
T1 sequence: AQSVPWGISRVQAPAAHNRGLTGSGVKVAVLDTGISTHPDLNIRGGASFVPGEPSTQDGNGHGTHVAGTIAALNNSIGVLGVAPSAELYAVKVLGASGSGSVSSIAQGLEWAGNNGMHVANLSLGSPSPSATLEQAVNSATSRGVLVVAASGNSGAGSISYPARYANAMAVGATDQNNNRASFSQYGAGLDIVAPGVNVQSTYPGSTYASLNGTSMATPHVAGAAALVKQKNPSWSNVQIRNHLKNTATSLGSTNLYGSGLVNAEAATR

B1: CI-2A variant (CI08) K21H+P25S+E26H+K30H+E33H (protein)
chain: HNLHTEWSHLVGHSVHEAKKVILQDKPEAQIIVLPVGTIVTMEYRIDRVRLFVDKLDNIAQVPRVG
B2: CI-2A variant (CI10) K30H+E33H+K43H+P44A+P52A, P01053 19-84 (protein)
chain: B1 chain with H4K, S8P, H9E, K26H, P27A, P35A
B3: CI-2A wildtype having the amino acid sequence of the mature protein of SEQ ID NO:1 (barley chymotrypsin inhibitor 2a) (other)
chain: B1 chain with H4K, S8P, H9E, H13K, H16E

Legend:
[1] = target: B. lentus protease variant having the amino acid sequence of SEQ ID NO: 2 with the substitutions S9E N43R N76D V205I Q206L Y209W S259D N261W L262E (Bacillus lentus), P29600; assay: cell-based or functional assay
[2] = target: T1, B. lentus protease having SEQ ID NO: 2 …; assay: cell-based or functional assay

pH value at which the released protease activity peaks [1] [pH] | pH value at which the released protease activity peaks [2] [pH] | Binder
3.5 to 4 |  | B1
3.5 to 4 |  | B2
3 | ~3.5 | B3
